Patent US20230002499A1, “METHODS OF CANCER TREATMENT WITH ANTI-OX40 ANTIBODY IN COMBINATION WITH CHEMOTHERAPEUTIC AGENTS” (BeiGene (Beijing) Co., Ltd., priority 2019, published 2023)
Substitutions are numbered along the chain they refer to.

T1: full-length human OX40 expressed on HuT78/OX40 cells (human, UniProt P43489 29-277)
T1 sequence: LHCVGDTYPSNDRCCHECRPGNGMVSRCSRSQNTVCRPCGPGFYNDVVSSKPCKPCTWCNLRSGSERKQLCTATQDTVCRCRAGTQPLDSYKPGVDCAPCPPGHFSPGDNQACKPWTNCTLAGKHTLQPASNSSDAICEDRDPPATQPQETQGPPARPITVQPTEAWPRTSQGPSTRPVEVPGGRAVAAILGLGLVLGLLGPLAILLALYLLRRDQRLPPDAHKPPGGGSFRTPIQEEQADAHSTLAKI

B1: ch445 (antibody, V domains shown)
VH: EVQLQQSGPELVKPGASVKMSCKASGYKFTSYIIHWVKQKPGQGLEWIGYINPYNDGTRYNEKFKGKATLTSDKSSSTAYMEYSSLTSEDSAVYYCARGYYGSSYAMDYWGQGTSVTVSS
VL: DIQMTQTTSSLSASLGDRVTISCSASQGISNYLNWYQQKPDGTIKLLIYDTSTLYSGVPSRFSGSGSGTDYFLTISNLEPEDIATYYCQQYSKLPYTFGGGTKLEKK
B2: 445-2 (antibody, human IgG1, V domains shown)
VH: QVQLVQSGAEVKKPGSSVKVSCKASGYKFTSYIIHWVRQAPGQGLEWMGYINPYNEGTRYAQKFQGRVTLTADKSTSTAYMELSSLRSEDTAVYYCARGYYGSSYAMDYWGQGTTVTVSS
VL: DIQMTQSPSSLSASVGDRVTITCSASQGISNYLNWYQQKPGKAIKLLIYDASTLYSGVPSRFSGSGSGTDFTLTISSLQPEDFATYYCQQYSKLPYTFGGGTKVEIK
B3: 445-1 (antibody, IgG1, V domains shown)
VH: B2 VH with E56D, A61N, A72S
VL: B2 VL with A51T, F71Y
notes: Full-length antibody with human wild-type IgG1 (IgG1wt) and kappa constant regions
B4: 445-3 (antibody, human IgG1, V domains shown)
VH: B2 VH with A61N
VL: B2 VL with S24R, G41D, K42G
notes: Human IgG1 wild type format
B5: 445-3 IgG4 (antibody, V domains shown)
VH: B2 VH with A61N
VL: B2 VL with S24R, G41D, K42G
B6: OX86: rat anti-mouse OX40 antibody disclosed in WO2016/057667, engineered with mouse IgG2a constant regions; VH SEQ ID NO: 32, VL SEQ ID NO: 33 (antibody, V domains shown)
VH: QVQLKESGPGLVQPSQTLSLTCTVSGFSLTGYNLHWVRQPPGKGLEWMGRMRYDGDTYYNSVLKSRLSISRDTSKNQVFLKMNSLQTDDTAIYYCTRDGRGDSFDYWGQGVMVTVSS
VL: DIVMTQGALPNPVPSGESASITCRSSQSLVYKDGQTYLNWFLQRPGQSPQLLTYWMSTRASGVSDRFSGSGSGTYFTLKISRVRAEDAGVYYCQQVREYPFTFGSGTKLEIK
modifications: mouse IgG2a constant regions

How the values were obtained:
[1] = target: T1, full-length human OX40 expressed on …; test: flow cytometry on live HuT78/OX40 cells; top of fitted curve
Protocol: To evaluate the binding activity of anti-OX40 antibodies to bind OX40 expressed on the surface of live cells, HuT78 cells were transfected with human OX40 as described in Example 1 to create an OX40 expressing line. Live HuT78/OX40 cells were seeded in 96-well plate and were incubated with a serial dilution of various anti-OX40 antibodies. Goat anti-Human IgG-FITC (Cat: A0556, Beyotime) was used as a secondary antibody to detect antibody binding to the cell surface. EC₅₀ values for dose-dependent binding to human OX40 were determined by fitting the dose-response data to the four-parameter logistic model with GraphPad Prism.

[2] = tested on: CT26WT cells, a murine colon carcinoma cell line; test: CT26WT syngeneic mouse model, OX86 in combination with Oxaplatin/5-Fu; format: in vivo; settings: OX86 0.08 mg/kg QW i.p.; Oxaplatin 1.5 mg/kg QW i.p.; 5-Fu 15 mg/kg once daily five days per week i.p.
Protocol: Female BALB/c mice were subcutaneously implanted with 1×10^5 CT26WT cells, a murine colon carcinoma cell line, in 150 μL PBS in the right flank. After inoculation, the mice were randomized into 4 groups with 20 animals in each group. Mice were treated with vehicle as a control.
OX86 is a rat anti-mouse OX40 antibody previously disclosed in WO2016/057667, which was further engineered with mouse IgG2a constant regions in order to reduce its immunogenicity and also keep its Fc-mediated functions in mouse studies. The VH and VL regions of OX86 are provided below. […] As monotherapy, OX86 was administered at 0.08 mg/kg once per week (QW) by intraperitoneal (i.p.) injection.
Oxaplatin/5-Fluorouracil (5-Fu) was administered as a single agent to the mice. The OX86 antibody in combination with Oxaplatin/5-Fu was administered as combination therapy. OX86 (0.08 mg/kg) was administered once per week by intraperitoneal (i.p.) injection. Oxaplatin (1.5 mg/kg) was also dosed once per week (QW) intraperitoneally, and 5-Fu was given at 15 mg/kg once daily for five consecutive days per week by i.p. injection. […] Tumor volume was determined twice weekly in two dimensions by using a caliper and was expressed in mm^3 using the formula: V=0.5(a×b^2) where a and b are the long and short diameters of the tumor, respectively. […] Tumor growth inhibition (TGI) is calculated using the following formula: […]

Molecule | Top (MFI), Mean [1] [MFI] | Mean Tumor Volume on Day 11 (Mean ± SEM) [2] [mm^3] | TGI (%) on Day 11 [2] [%]
B1 | 725 | – | –
B2 | 620 | – | –
B3 | 525 | – | –
B4 | 910 | – | –
B5 | 892 | – | –
B6 | – | 969.2 ± 229.0 | 48
